The text below walks through data of patent US20240226314A1 (Sanofi, published 2024).

Read-outs that look alike come from different tables or passages of the source.

By Kd is commonly meant the free concentration of one partner at which half of the binding sites on the other are occupied at equilibrium, for simple one-to-one binding.

The chains are these.
B1: His-tagged cynomolgus monkey TfR ectodomain (cyTFRC_89_760; mature protein) (receptor)
chain: CKGVEPKTECERLAGTESPAREEPEEDFPAAPRLYWDDLKRKLSEKLDTTDFTSTIKLLNENLYVPREAGSQKDENLALYIENQFREFKLSKVWRDQHFVKIQVKDSAQNSVIIVDKNGGLVYLVENPGGYVAYSKAATVTGKLVHANFGTKKDFEDLDSPVNGSIVIVRAGKITFAEKVANAESLNAIGVLIYMDQTKFPIVKADLSFFGHAHLGTGDPYTPGFPSFNHTQFPPSQSSGLPNIPVQTISRAAAEKLFGNMEGDCPSDWKTDSTCKMVTSENKSVKLTVSNVLKETKILNIFGVIKGFVEPDHYVVVGAQRDAWGPGAAKSSVGTALLLKLAQMFSDMVLKDGFQPSRSIIFASWSAGDFGSVGATEWLEGYLSSLHLKAFTYINLDKAVLGTSNFKVSASPLLYTLIEKTMQDVKHPVTGRSLYQDSNWASKVEKLTLDNAAFPFLAYSGIPAVSFCFCEDTDYPYLGTTMDTYKELVERIPELNKVARAAAEVAGQFVIKLTHDTELNLDYERYNSQLLLFLRDLNQYRADVKEMGLSLQWLYSARGDFFRATSRLTTDFRNAEKRDKFVMKKLNDRVMRVEYYFLSPYVSPKESPFRHVFWGSGSHTLSALLESLKLRRQNNSAFNETLFRNQLALATWTIQGAANALSGDVWDIDNEF
notes: also called cTfR; cTfR ectodomain

Experiment [1] has as its target T1, anti-TfR 531v25-Fab-FcOL-GAA.
T1 construct: Monovalent Fab-FcOL with GAA fused to the C-terminus of the Fc polypeptide
Description: SPR, His-tagged TfR ectodomain captured on anti-His, 1:1 fit. As for the experimental part: (§1) Binding of the humanized Fab variants to human, cynomolgus and mouse TfR was assessed using SPR at pH 7.4. Experiments were run on a Bruker MASS-2 instrument with HBS-EP+ as running buffer and sample diluent (Cytiva Life Sciences, #BR100826). HCA sensor chips (Bruker, #1862614) were immobilized with anti-His antibody (His capture kit, Cytiva Life Sciences, #28995056) following manufacturer's instructions. About 10,000 RU of anti-His was obtained. His-tagged hTfR ectodomain (SEQ ID NO: 39), cTfR ectodomain (SEQ ID NO: 40) or mouse TfR ectodomain (SEQ ID NO: 41) (5 μg/ml) was captured for 1 min at 10 μL/min. Concentration series of the humanized Fab variants were then injected for 4 min at 30 μL/min over hTfR surfaces and dissociation was monitored for 5 min. Surface was regenerated with one 1 min pulse of 10 mM glycine-HCl at pH 1.5.
(§2) Affinity by SPR was also measured for the 531v25-mAb-GAAx2 molecule (a GAA sequence fused to both HCs).
Background: SPR reads the build-up and loss of mass on a sensor chip optically.

Experiment [2] deals with T2, anti-TfR 531v25-Fab-FcOL-LC-GAA (Homo sapiens (Human), UniProt P0DOX5 223-448 = IgG part).
T2 construct: Monovalent Fab-FcOL with GAA fused to the C-terminus of the light chain
The description is as above. As for the experimental part: as §1, §2

Experiment [3] addresses T1, anti-TfR 531v25-Fab-FcOL-GAA. Description: flow cytometry on TfR-expressing 300.19 cells. A general note: A flow cytometer gives signals particle by particle.
Experiment [4] deals with T2, anti-TfR 531v25-Fab-FcOL-LC-GAA. Kind of experiment: flow cytometry on TfR-expressing 300.19 cells.
Experiment [5] deals with B1. Description: SPR; KD on cTfR against KD on hTfR. Here is the method:
as §1

Experiment [6] addresses B1. Description: SPR, His-tagged TfR ectodomain captured on anti-His, 1:1 fit. Here is the method:
as §1

Experiment [7] addresses T3, His-tagged human TfR ectodomain (hTFRC_89-760_G142S; mature protein) (human, UniProt P02786 89-760).
T3 construct: It carries the G142S haplotype; also called hTfR ectodomain
The description is as above. As for the experimental part: as §1

For experiment [8], the target named is B1. Described as above. As for the experimental part:
as §1

The target of experiment [9] is T3, His-tagged human TfR ectodomain …. Described as above. Here is the method:
as §1
The source holds these as a separate data set.
Target sequence in this assay (P02786 89-760 G142S): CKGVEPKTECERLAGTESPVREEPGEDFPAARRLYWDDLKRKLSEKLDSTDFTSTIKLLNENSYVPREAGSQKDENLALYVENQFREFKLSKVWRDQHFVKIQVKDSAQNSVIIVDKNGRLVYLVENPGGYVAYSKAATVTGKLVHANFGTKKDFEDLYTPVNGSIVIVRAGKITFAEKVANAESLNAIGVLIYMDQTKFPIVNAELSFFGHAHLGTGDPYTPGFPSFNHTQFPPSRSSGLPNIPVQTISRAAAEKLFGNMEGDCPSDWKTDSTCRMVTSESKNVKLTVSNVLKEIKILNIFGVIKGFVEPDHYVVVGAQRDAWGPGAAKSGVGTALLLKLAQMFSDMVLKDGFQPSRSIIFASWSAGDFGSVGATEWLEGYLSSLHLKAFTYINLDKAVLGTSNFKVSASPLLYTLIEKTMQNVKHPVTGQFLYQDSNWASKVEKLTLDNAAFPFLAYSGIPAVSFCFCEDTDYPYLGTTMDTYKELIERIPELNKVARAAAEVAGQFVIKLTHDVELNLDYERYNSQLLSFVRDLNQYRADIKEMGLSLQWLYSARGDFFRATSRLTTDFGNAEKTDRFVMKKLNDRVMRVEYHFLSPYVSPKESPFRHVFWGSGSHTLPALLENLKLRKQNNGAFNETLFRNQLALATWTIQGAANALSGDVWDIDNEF

Experiment [10] addresses B1. Kind of experiment: SPR; KD on cTfR against KD on hTfR. As for the experimental part:
as §1

For experiment [11], the target named is His-tagged mouse TfR ectodomain (mTFRC_89_764; mature protein) (mouse, UniProt Q62351 89-763). Description: SPR, His-tagged mTfR ectodomain captured on anti-His. Here is the method: as §1
Sequence of His-tagged mouse TfR ectodomain (mTFRC_89_764; mature protein) (Q62351 other isoform, or with tags, fused parts or gaps): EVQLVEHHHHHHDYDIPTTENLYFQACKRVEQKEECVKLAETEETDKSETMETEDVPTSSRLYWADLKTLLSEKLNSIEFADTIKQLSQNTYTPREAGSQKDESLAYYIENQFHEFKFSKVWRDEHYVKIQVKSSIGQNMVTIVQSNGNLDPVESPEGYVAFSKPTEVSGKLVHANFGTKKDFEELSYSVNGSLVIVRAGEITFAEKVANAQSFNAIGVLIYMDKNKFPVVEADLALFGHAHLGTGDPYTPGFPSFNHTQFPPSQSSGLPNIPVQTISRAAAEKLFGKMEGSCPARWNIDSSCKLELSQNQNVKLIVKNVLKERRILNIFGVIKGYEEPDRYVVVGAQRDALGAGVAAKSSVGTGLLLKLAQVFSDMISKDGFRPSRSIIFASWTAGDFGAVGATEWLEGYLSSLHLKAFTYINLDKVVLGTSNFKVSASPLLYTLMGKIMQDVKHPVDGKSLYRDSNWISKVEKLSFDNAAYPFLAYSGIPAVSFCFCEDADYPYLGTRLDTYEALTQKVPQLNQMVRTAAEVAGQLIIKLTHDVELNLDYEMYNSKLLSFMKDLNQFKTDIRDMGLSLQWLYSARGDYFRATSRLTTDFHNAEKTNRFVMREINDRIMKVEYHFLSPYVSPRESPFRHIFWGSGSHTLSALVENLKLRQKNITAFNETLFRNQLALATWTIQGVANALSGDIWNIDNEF

T1 sequence (chain, as listed by the source): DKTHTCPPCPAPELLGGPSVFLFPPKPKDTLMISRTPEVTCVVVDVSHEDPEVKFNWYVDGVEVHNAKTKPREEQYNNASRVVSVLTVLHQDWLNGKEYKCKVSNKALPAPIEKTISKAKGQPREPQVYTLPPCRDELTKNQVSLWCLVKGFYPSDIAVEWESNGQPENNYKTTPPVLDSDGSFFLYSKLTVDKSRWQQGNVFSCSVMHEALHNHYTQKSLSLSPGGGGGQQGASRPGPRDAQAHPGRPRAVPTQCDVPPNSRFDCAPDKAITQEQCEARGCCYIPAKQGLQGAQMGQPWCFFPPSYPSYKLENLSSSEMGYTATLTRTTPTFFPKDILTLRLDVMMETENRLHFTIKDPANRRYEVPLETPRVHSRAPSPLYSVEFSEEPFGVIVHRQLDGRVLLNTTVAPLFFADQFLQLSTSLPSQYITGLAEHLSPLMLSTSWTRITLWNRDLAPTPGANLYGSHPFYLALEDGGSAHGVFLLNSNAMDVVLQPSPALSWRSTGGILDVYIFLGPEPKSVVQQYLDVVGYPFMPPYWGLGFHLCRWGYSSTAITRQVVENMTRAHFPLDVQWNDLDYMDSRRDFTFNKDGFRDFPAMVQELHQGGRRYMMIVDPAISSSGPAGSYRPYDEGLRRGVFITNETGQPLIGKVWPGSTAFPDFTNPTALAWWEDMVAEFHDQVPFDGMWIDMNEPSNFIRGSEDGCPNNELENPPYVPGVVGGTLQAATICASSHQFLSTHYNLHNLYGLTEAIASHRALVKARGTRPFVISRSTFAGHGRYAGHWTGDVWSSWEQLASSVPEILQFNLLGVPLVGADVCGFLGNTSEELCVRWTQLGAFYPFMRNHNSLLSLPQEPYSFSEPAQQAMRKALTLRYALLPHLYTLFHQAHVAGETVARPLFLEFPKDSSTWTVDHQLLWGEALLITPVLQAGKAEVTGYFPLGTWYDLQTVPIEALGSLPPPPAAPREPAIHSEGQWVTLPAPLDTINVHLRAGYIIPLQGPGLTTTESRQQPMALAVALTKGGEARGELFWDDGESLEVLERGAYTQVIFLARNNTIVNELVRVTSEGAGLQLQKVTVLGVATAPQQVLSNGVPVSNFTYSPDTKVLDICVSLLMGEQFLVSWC

For the molecule B1, the Kd in experiment [1] was determined as 89 nM; in experiment [2], 154 nM.

B2: cTfR expressed on 300.19 cells (SEQ ID NO: 2) (receptor)
chain: MMDQARSAFSNLFGGEPLSYTRFSLARQVDGDNSHVEMKLGVDEEENTDNNTKANGTKPKRCGGNICYGTIAVIIFFLIGFMIGYLGYCKGVEPKTECERLAGTESPAREEPEEDFPAAPRLYWDDLKRKLSEKLDTTDFTSTIKLLNENLYVPREAGSQKDENLALYIENQFREFKLSKVWRDQHFVKIQVKDSAQNSVIIVDKNGGLVYLVENPGGYVAYSKAATVTGKLVHANFGTKKDFEDLDSPVNGSIVIVRAGKITFAEKVANAESLNAIGVLIYMDQTKFPIVKADLSFFGHAHLGTGDPYTPGFPSFNHTQFPPSQSSGLPNIPVQTISRAAAEKLFGNMEGDCPSDWKTDSTCKMVTSENKSVKLTVSNVLKETKILNIFGVIKGFVEPDHYVVVGAQRDAWGPGAAKSSVGTALLLKLAQMFSDMVLKDGFQPSRSIIFASWSAGDFGSVGATEWLEGYLSSLHLKAFTYINLDKAVLGTSNFKVSASPLLYTLIEKTMQDVKHPVTGRSLYQDSNWASKVEKLTLDNAAFPFLAYSGIPAVSFCFCEDTDYPYLGTTMDTYKELVERIPELNKVARAAAEVAGQFVIKLTHDTELNLDYERYNSQLLLFLRDLNQYRADVKEMGLSLQWLYSARGDFFRATSRLTTDFRNAEKRDKFVMKKLNDRVMRVEYYFLSPYVSPKESPFRHVFWGSGSHTLSALLESLKLRRQNNSAFNETLFRNQLALATWTIQGAANALSGDVWDIDNEF
notes: Murine pre-B cell line 300.19, stably transfected with a plasmid expressing cTfR; also called cynomolgus TfR; cTfR-expressing 300.19 cells
Take B2: the binding result in experiment [3] and in experiment [4] was “binds” in each case.

B3: 531v25 Fab (Fab, V domains shown)
VH: QVQLVQSGAEVKKPGASVKVSCKASGYTFTRYYLNWVRQAPGQGLEWIGMIDPSVSETHYAQKFQGRATLTVDKSTSTAYMELSSLRSEDTAVYYCSQIRLPYYYAMDSWGQGTTVTVSS
VL: DIQMTQSPSSLSASVGDRVTITCRASQDISSFLNWYQQKPGKAPKLLIYYTSRLQSGVPSRFSGSGSGTDYTLTISSLQPEDFATYYCQQGNTLPRTFGGGTKVEIKR
notes: The His-tag was removed with TEV protease before SPR
In the case of B3, the figures for the “Cynomolgus/human KD ratio” value in [5] and in [10] were 12.5 and 12.4, respectively. In addition, the Kd was determined as 55.8 nM in experiment [6], 4.5 nM in experiment [7], 55.8 nM in experiment [8] and 4.45 nM in experiment [9]. Besides, the binding result in [11] was “no binding”.
